The chains are these.
B1: RSFP2D9抗体 (antibody, V domains shown)
VH: EVQLVESGGGLVQPGGSLRLSCAASGFTFSTYEMNWVRQAPGKGLEWISYISVSGATIYYADSVKGRFTISRDNAKSSVYLQMTSLRPEDTAIYYCARDNSLTDYGSGLYWGQGTTVTVSS
VL: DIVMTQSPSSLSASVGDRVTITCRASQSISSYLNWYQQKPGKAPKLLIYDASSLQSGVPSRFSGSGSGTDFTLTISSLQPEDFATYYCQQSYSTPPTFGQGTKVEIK
B2: RSFP2B6抗体 (antibody, V domains shown)
VH: QVQLVQSGGALAQPGRSLRLSCTTSGFTFGDYAVNWVRQAPGKGLEWVGIVRTEPYGGTTEYSASVKGRFIISRDDSKGIAYLQMNSLKTEDTGVYYCSQPILNVDVWGQGTTVTVSS
VL: NFMLTQPHSVSESPGKTVTISCTRSSGSFGSDYVQWYQQRPGSAPNTVIYENNQRPSGVPDRFSGSIDSSSNSASLTISGLKTEDEADYYCQSYDDNTPWVFGGGTELTVL
B3: RSFP2G7抗体 (antibody, V domains shown)
VH: QVQLVQSGTEVRKPGSSVKVSCTASGGTFSIYDIFWVRQAPGQGLEWMGRIIPILDQIDYAQKFEGRVTITADKGRKTVYMELSSLRSDDTAVYYCARPPDTYDNIERWGPGTLVTVSS
VL: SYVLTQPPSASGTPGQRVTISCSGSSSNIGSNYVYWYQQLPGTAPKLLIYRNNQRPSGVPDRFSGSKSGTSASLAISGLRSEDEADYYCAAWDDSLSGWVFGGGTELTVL

Sequence of RSV(strain A2)病毒的F蛋白 (P03420 26-574): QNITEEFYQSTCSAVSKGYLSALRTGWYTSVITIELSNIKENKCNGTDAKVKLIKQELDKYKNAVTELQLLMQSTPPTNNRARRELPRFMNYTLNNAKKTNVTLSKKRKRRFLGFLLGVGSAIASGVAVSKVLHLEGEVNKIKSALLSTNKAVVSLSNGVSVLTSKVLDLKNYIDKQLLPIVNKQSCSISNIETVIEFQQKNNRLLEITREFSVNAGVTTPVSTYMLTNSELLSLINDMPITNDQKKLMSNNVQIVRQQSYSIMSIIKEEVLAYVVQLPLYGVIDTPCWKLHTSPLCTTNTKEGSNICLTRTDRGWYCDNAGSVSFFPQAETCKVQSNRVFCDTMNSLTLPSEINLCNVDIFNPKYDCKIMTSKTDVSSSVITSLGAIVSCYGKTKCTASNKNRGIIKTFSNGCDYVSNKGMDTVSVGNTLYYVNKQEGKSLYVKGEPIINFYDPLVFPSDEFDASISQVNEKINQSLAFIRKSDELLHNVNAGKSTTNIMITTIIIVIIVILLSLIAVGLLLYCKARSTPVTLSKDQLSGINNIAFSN
Sequence of RSV-A2 F假病毒上的F蛋白 (参考序列Uniprot:P03420) (P03420 26-574, one chain of several): as the sequence (P03420 26-574) above

The first assay concerns the target RSV(strain A2)病毒的F蛋白 (RSV (strain A2), UniProt P03420 26-574). Nature of the assay: cell-based or functional assay.
With B1, the “中和IC50 (RSV strain A2活病毒, focus count, 293T细胞)” value was determined as 0.054 µg/mL.

Take B2: the “中和IC50 (RSV strain A2活病毒, focus count, 293T细胞)” value came to 1 µg/mL.

For B3, the “中和IC50 (RSV strain A2活病毒, focus count, 293T细胞)” value is 0.734 µg/mL.

The next assay addresses RSV-A2 F假病毒上的F蛋白 (参考序列Uniprot:P03420) (RSV A2, UniProt P03420 26-574). As to the kind of experiment: cell-based or functional assay.
With B1, the “中和IC50 (RSV-A2假病毒, luciferase, 293T细胞)” value came out at 0.532 µg/mL.

B2: the “中和IC50 (RSV-A2假病毒, luciferase, 293T细胞)” value is 3.89 µg/mL.

B3: the “中和IC50 (RSV-A2假病毒, luciferase, 293T细胞)” value came to 1.7 µg/mL.

Values taken from CN118307667A (INST PATHOGEN BIOLOGY CAMS, dated 2024).
